Results reported in the supplement of paper PMC12636428.

System: Saccharomyces cerevisiae
Assay: transcriptional activation domain activity (GFP:mCherry ratio, weighted mean of sorted bins, harmonized to initial dataset scale) (arbitrary fluorescence ratio units); higher = stronger transcriptional activation
Conditions: beta-estradiol 1 µM; induction time 4 h
Summary of the method: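 Sorting into 8 bins by GFP:mCherry ratio followed a 4-hour hold at 30 °C after cultures were diluted 1:5 into SC with 1 uM beta-estradiol. The yeast diploids carried a GFP reporter and had barcoded protein tiles, fused to an estradiol-inducible synthetic transcription factor, integrated at URA3. Barcodes were then sequenced, and tiles with under 50 reads were removed. Activation activity is the read-weighted mean of bin median fluorescence, averaged across barcodes and linearly mapped onto the initial dataset scale.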

Row | Sequence | transcriptional activation domain activity
1 | ALVLLYIIRFVCTTLAKRFPSKSKLFFFMSTLRTVFVILLYTMISWLVNRHSR | 44800
2 | ARVQVNFWFFLFVYYGFYNLTALMWITKVFNLYSLNWWPSTMGFPLTITLIAI | 55300
3 | VVLYMLRFLGLMHIMLFSHIDQRCKDFAKVYLRGRIIRYTCPFFSRSSLHKIV | 49400
4 | MEVVEGGGWKSFVYSCIRVIFLWGLDFGYFGLVACLISFCIGIFFSFFFPHYF | 27200
5 | FCFYPFQKQWVMFSLTKDSLQLAHKFNFTRVPLPQRLRAVYLYARFAWRIFLL | 33000
6 | GAKGKGAEKGKSKQAEQGDGEDGGSEAEGGKRKRAARSKAKTKGKAGGAADGG | 23300
7 | MSRLSIYVALLLLESICICWRGWIAPRHVAMESVQINFKTGRFLVYFMFPIKA | 32000
8 | EERRRGRRRRRKGGGEGGRGRKREKEREERERKGEKKEGERKGKGEEKGREKK | 20300
9 | YILRLFRDYVFFQVDANGKRTFDLGHMMECLLRMDCGSDELICLTSSDEKNVI | 49100
10 | MDCLGMEFIGCEIFGAVALIFLFFFLFFFFFIFFHFLLIFLFSFSFFLFFFFV | 47200
11 | MRCLRSVLGVFFLSYSLYILHCIFCLISYPLAISFMNLSCLGWFHGFWGFIYF | 36000
12 | GLFRVAGRVLHVNRLNDDFDAGADYDLRKATPADLDPHVVASVLKSYLRTLRG | 27100
13 | KVGFVLIFLFALLVFTSIICSPIYVFSVPYSSICISLQVHRCCLFYGAVIWFV | 31300
14 | MGREHSAPLDSSSKQGAPRRTQRAQLPHNSLCRMGLKTNMKWTHSIRQDKRAE | 35600
15 | ENVYRPFLMVYTEAIILIFSFYLIILYIVLFTFLEGYPYIFSRVYGISDSLTF | 40900
16 | KQYCVRPNSGRIEGGGEVEVQVLLQAMKEDPPLDAKCKDKFLVQSVAVAADRE | 46900
17 | MFKGTLLLVFFHYGWALFLDYCLWYIMISLCFWYRVCLPVLLLGFHVCCHLWC | 48500
18 | MQETNGNTTAADQGSRHDVPPPRRPTRSRNGCMTCRRRKVRCDEQRPRCSHCE | 8920
19 | IIVKTEIMIRNRHPRFLRITLDSVSNLVRLWYIVRLKKLTYYYLLWEFSLLPL | 49700
20 | VYRRELDQNKGGLILIVRRTGNEVHCGVYITFGFMKQWKLYVKSLISITGQWH | 58500
21 | LHYIYVVAISKSLSRLTLSYYTPAQLAMIGYFNLHIIWLKLMIPWRFFRLWSL | 43200
22 | WDMTLGGTINKTGVIGVIMIVIGFYLWFFLSCAVLIAMEGCSAMLHSLRLQWV | 31300
23 | MFFIFFFWFVFFPLTIFLLSSSIFGFLFSSSFLFYYYYFFLWGGRPFIFPFYS | 33300
24 | EKRGLDTKNIYVGAEPFDAELRQRLESEQSFSFRSTDIIHFVAMLLIRYLFDL | 59300
25 | RLYAVRLVIVILVMELTLHFLYVVAISKSKAWDGASPLELSMVGYFNLVIIWM | 42900
26 | MADTSTDGGPERTPVAAPISIKACDQCRARKVRCDKTSPCANCRKHNVKCTTS | 19000
27 | AYLTFCIYLCFWSYLNLRLAGLFFFSLFIILFPPRVSWLHYFSFLFYSGVFCF | 51000
28 | RSLGIVFYFGLLLSFYFEFFFSSIFSFVIIIWLYPIGFLYICLSAAIPFPLLN | 65000
29 | MGVYLQKLGWGYRVWRFLFWMGLSLVSFLFFICCFSLSVHTCFFFFWLGRLGW | 27300
30 | EEEAELAKPAKRPRESDATERDASTGDEVSKKKSKKLKAENGAPVAAPAGTSG | 39300
